This data set has as its target DENV C (dengue virus capsid protein) (Dengue virus 2, strain New Guinea, UniProt O92835 1-100). The data set can be described thus: Trp fluorescence quenching and lifetime.

As to AAAGACCAACACCAAGAGGCACAGTAATGGACATT (ssDNA) [C], the binding result is given as “binds”.

The record behind these values is PMC13129248.
